Assay results published in the supplement of paper PMC11780869.

Test system: Bacillus subtilis
Experiment: cleaved RNA product abundance (RNA/gDNA barcode ratio) relative to median wild-type variant (ratio to wild type); higher = more accumulation of the downstream cleavage product
How it was run: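 In LB at 37°C, B. subtilis cultures went from OD600 0.0003 to 0.3. Their chromosomes held barcoded reporter mRNAs, truncated aprE or tetM, with RNase Y cleavage-site windows mutagenized via oligos at a 9% error rate. Cleaved RNA, chosen by gel, was reverse transcribed and barcode-sequenced alongside genomic DNA barcodes with UMI collapsing, giving a per-construct RNA:gDNA ratio scaled to the median construct with the unmutated site. This scaled ratio is termed cleaved product abundance.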

[1] = experiment (reporter, strain, medium): exp 4a: truncated aprE reporter, strain BJT201 with 2% xylose (RNase J1 expressed), cleavage site: cggR-gapA (positions -7 to +36 mutated)
[2] = experiment (reporter, strain, medium): exp 8a: truncated aprE reporter, strain BJT201 with 2% xylose (RNase J1 expressed), cleavage site: glnRA (positions -5 to +31 mutated)
[3] = experiment (reporter, strain, medium): exp 6: tetM reporter, strain 168, cleavage site: cggR-gapA (positions -7 to +36 mutated)
[4] = experiment (reporter, strain, medium): exp 2b: truncated aprE reporter, strain BJT200, cleavage site: cggR-gapA (positions -7 to +36 mutated)

Row | Sequence | cleaved RNA product abundance [1] | cleaved RNA product abundance [2] | further results
1 | ACAGACGAAGGAGCCGCAAAGAAGTTATTAAGGGTTGAATAATCCCTCAATATAAATATTTCTCACTTATTTAAA | 0.512 |  | 
2 | CGACATGTCCCGCTTCTTTCATTAATCCATTAGCAACTGTTTTGCTACATACATTTACCTTTTAAGAGGAGGAAT |  | 0.772 | 
3 | CGACATGTCCCGCTTCTTTCATTATTCCGTTAGCAAGTGTTTTGCTATATACATTTACCTTTTAAGAGGAGGAAT |  | 1.46 | 
4 | ACAGACGAAGGAGCCGCAAAGAAGTTTTTAGGGGATGAATAATCCCTCAATATAAATATCTCTCACTTATTTAAA | 0.507 |  | 
5 | CGACATGTCCCGCTTCTTTCATTAATCCGTTAGCAACTGTTATGCTATATACAATTACCTTTTAAGAGGAGGAAT |  | 1.02 | 
6 | ACAGACGAAGGAGCCGCGAAGAAGTTATTAAGGAATGAATAATCCCTCAATATAAATATCTCTCACTTATTTAAA |  |  | cleaved RNA product abundance [3]: 0.104
7 | CGACATGTCCCGCTTCTTTCATTAATCCGTTAGCAACTATTTTGCTATATACATTTACATTTTAAGAGGAGGAAT |  | 3.23 | 
8 | ACAGACGAAGGAGCCGCAAAGAACTTATTAAGGGATGAATAATCCCTCAAGATAAATATCTCTCACTTATTTAAA | 0.185 |  | cleaved RNA product abundance [4]: 0.165
9 | ACAGACGAAGGAGCCGCACAGAAGTTATTAAGGGATGAATAATCCCTCAATATACATATCTCTCACTTATTTAAA | 1.13 |  | 
10 | CGACATGTCCCGCTTCTTTCATTATTCCTTAAACAACTGTTTTGTAATATACATTATACCTTTAAGAGGAGGAAT |  | 0.242 | 
11 | ACAGACGAAGGAGCCGCAAAGAAGTTATTAAGGGATAAATAATCCCTCAATATAACTATCTCTCACTTATTTAAA | 0.156 |  | 
12 | ACAGACGAAGGAGCCGCAAAGAAGTTATTAAGGGAAGAATTATCCCTCAATATAAATATCTCTCACTTATTTAAA | 0.771 |  | 
13 | ACAGACGAAGGAGCCGCGAAGAACTTATTAAGGGATGAATAATCCCTCAATATAAATATCTCTCACTTATTTAAA | 0.252 |  | 
14 | ACAGACGAAGGAGCCGCAAAGAAGTTATTCAGGGATGAATAATCCCTCAATATAAATATCTCTCACTTATTTAAA | 0.882 |  | cleaved RNA product abundance [4]: 0.766; cleaved RNA product abundance [3]: 0.609
15 | CGACATGTCCCGCTTCTTTCATTAATCCATTAGCAACTGTTTTGCTATATATATTTACCTTTTAAGAGGAGGAAT |  | 0.973 | 
16 | CGACATGTCCCGCTTCTTTCATTAAAACGTTAGCAACTGTTTTGCTATATACATTTACCTTTTAAGAGGAGGAAT |  | 0.868 | 
17 | ACAGACGAAGGAGCCGCAAAGAAGTTGTTAAGGGAAGAATAATCCCTCAATATAAATATCTCTCACTTATTTAAA | 0.246 |  | 
18 | ACAGACGAAGGAGCCGCAAAGAAGTTATTAAGGGATGAATAATCCCTAAATATAGATATCTCTCACTTATTTAAA | 0.551 |  | cleaved RNA product abundance [4]: 0.495
19 | ACAGACGAAGGAGCCGCAAAGAAGTTATTAAGAGATGAATAATCCCTCAATATAACTATCTCTCACTTATTTAAA | 0.0935 |  | 
20 | CGACATGTCCCGCTTCTTTCATTAATCCATTAGCAACTGTTTTGCTAAATACATTTACCTTTTAAGAGGAGGAAT |  | 0.47 | 
21 | ACAGACGAAGGAGCCGCAAAGAAGTTATTCAGGGATGAATTATCCCTCAATATAAATATCTCTCACTTATTTAAA | 0.629 |  | cleaved RNA product abundance [4]: 0.56

Row | Sequence | cleaved RNA product abundance [1] | cleaved RNA product abundance [2] | further results
22 | ACAGACGAAGGAGCCGCAAAGAAGTTATTAAGGAATGAATCATCCCTCAATATAAATATCTCTCACTTATTTAAA | 0.151 |  | 
23 | ACAGACGAAGGAGCCGCAAAGAAGTTATTAAGGGATGAATAATACCTAAATATAAATATCTCTCACTTATTTAAA | 0.132 |  | cleaved RNA product abundance [4]: 0.12
24 | ACAGACGAAGGAGCCGCAAAGATGTTATTAAGGGATGCATAATCCCTCAATATAAATATCTCTCACTTATTTAAA | 1.1 |  | cleaved RNA product abundance [4]: 0.859
25 | CGACATGTCCCGCTTCTTTCATTATTCCGTTAGCAACTGTTGTGCTATATACATTTACCTTTTAAGAGGAGGAAT |  | 0.941 | 
26 | ACAGACGAAGGAGCCGCAAAGAAGTTATTAAGGGATGAAAAATCCCTCAATTTAAATATCTCTCACTTATTTAAA |  |  | cleaved RNA product abundance [4]: 0.2
27 | ACAGACGAAGGAGCCGCAAAAAAGTTATAAAGGGATGAATAATCCCTCAATATAAATATCTCTCACTTATTTAAA | 0.581 |  | cleaved RNA product abundance [4]: 0.4
28 | ACAGACGAAGGAGCCGCATAGAAGTTTTTAAGGGATGAATAATCCCTCAATATAAATATCTCTCACTTATTTAAA | 0.561 |  | 
29 | CGACATGTCCCGCTTCTTTCATTATTCCGTTAGCAACTGTTTTGCTATATACATTTACCATTTAAGAGGAGGAAT |  | 1.89 | 
30 | ACAGACGAAGGAGCCGCAACGAAATTATTAAGGGATGAATAATCCCTCAATATAAATATCTCTCACTTATTTAAA | 1.03 |  | cleaved RNA product abundance [4]: 1.1
31 | ACAGACGAAGGAGCCGCAAAGAAGTTATTAAGGGATGAAAAATCCCTCAATATCAATATCTCTCACTTATTTAAA | 0.0918 |  | 
32 | CGACATGTCCCGCTTCTTTCATTAATCCGGTAGCAACTGTTTTGCTAGATACATTTACCTTTTAAGAGGAGGAAT |  | 0.545 | 
33 | ACAGACGAAGGAGCCGCAAAGAAGTTATTAACGGATCAATAATCCCTCAATATAAATATCTCTCACTTATTTAAA | 0.104 |  | cleaved RNA product abundance [4]: 0.0668
34 | ACAGACGAAGGAGCCGCAAAGAAGTTATTAAGGGATGAAGAAGCCCTCAATATAAATATCTCTCACTTATTTAAA | 0.549 |  | 
35 | CGACATGTCCCGCTTCTTTCATTAATCCGTTAACAATTGTTTTGCTACATACATTTACCTTTTAAGAGGAGGAAT |  | 0.135 | 
36 | CGACATGTCCCGCTTCTTTCATTAATCAGTTTGCAACTGTTTTGCTATATACATTTACCTTTTAAGAGGAGGAAT |  | 0.686 | 
37 | ACAGACGAAGGAGCCGCAAAGAAGCTATTAAGGGAGGAATAATCCCTCAATATAAATATCTCTCACTTATTTAAA | 0.24 |  | cleaved RNA product abundance [4]: 0.287
38 | ACAGACGAAGGAGCCGCAAAGAAGTTATAAAGGGATGAATACTCCCTCAATATAAATATCTCTCACTTATTTAAA | 0.287 |  | 
39 | ACAGACGAAGGAGCCGCAATGAAGTTATTAAGGGCTGAATAATCCCTCAATATAAATATCTCTCACTTATTTAAA | 0.472 |  | cleaved RNA product abundance [4]: 0.583
40 | ACAGACGAAGGAGCCGCAAAGCAGTTATTAAGGGATGAATAATCCCTCAACATAAATATCTCTCACTTATTTAAA | 0.118 |  | 
41 | ACAGACGAAGGAGCCGCAAAGAAGTTATTAAGGGGTGAATAATCCCTAAATATAAATATCTCTCACTTATTTAAA | 0.554 |  | 
42 | ACAGACGAAGGAGCCGCAACGAAGTTATTAAGGGATGTATAATCCCTCAATATAAATATCTCTCACTTATTTAAA | 0.656 |  | 

Row | Sequence | cleaved RNA product abundance [1] | cleaved RNA product abundance [2] | further results
43 | CGACATGTCCCGCTTCTTTCATTAATCCGTTAGCAACTGTTTCGCTATATACATGTACCTTTTAAGAGGAGGAAT |  | 0.361 | 
44 | CGACATGTCCCGCTTCTTTCATTAAACCGTAAGCAACTGTTTTGCTATATACATTTACCTTTTAAGAGGAGGAAT |  | 0.203 | 
45 | CGACATGTCCCGCTTCTTTCATTAATCCGTTATTAACTGTTTTACTATATACATTTACCTTTTAAGAGGAGGAAT |  | 0.408 | 
46 | ACAGACGAAGGAGCCGCAAAGAAGTCATTAAGGGATGAATAATCCCCCAATATAAATATCTCTCACTTATTTAAA | 0.113 |  | 
47 | ACAGACGAAGGAGCCGCAAAGAAGTTATTAAGGAATGAATAATCCCACAATATAAATATCTCTCACTTATTTAAA | 0.0935 |  | 
48 | CGACATGTCCCGCTTCTTTCATTACTCCGTTAGCAACTGTTTTGCTATATATATTTACCTTTTAAGAGGAGGAAT |  | 1.44 | 
49 | ACAGACGAAGGAGCCGCAAAGAAGTTATTAAGGGATGAATAATCGCTAAATATAAATATCTCTCACTTATTTAAA |  |  | cleaved RNA product abundance [4]: 0.0982
50 | ACAGACGAAGGAGCCGCAAATAAGTTATTAAGGGATGAATAATCCCTCATTATAAATATCTCTCACTTATTTAAA | 0.356 |  | 
51 | CGACATGTCCCGCTTCTTTCATTAATACGTTAGCAACTGTTTTGCTATATACATTTATCTTTTAAGAGGAGGAAT |  | 1.51 | 
52 | ACAGACGAAGGAGCCGCAAAGAAGTTATTAATGGATGAACAATCCCTCAATATAAATATCTCTCACTTATTTAAA | 0.143 |  | 
53 | ACAGACGAAGGAGCCGCAAAAAAGTTATTAAGGGATGAATAATCCCTCAACATAAATATCTCTCACTTATTTAAA | 0.272 |  | cleaved RNA product abundance [4]: 0.239
54 | ACAGACGAAGGAGCCGCAAAGAAGTTATTAAGGGATAAAGAATCCCTCAATATAAATATCTCTCACTTATTTAAA | 0.629 |  | 
55 | CGACATGTCCCGCTTCTTTCATTACTCCGTTAGCAACTGTTTTGCTATATACATCTACCTTTTAAGAGGAGGAAT |  | 0.75 | 
56 | CGACATGTCCCGCTTCTTTCATTAATTCGTTAGCAACTGTTTTGCTATATACACTTACCTTTTAAGAGGAGGAAT |  | 0.629 | 
57 | CGACATGTCCCGCTTCTTTCATTAATCCGTTAACAACTGTTTTGCTATATACAATTACCTTTTAAGAGGAGGAAT |  | 0.242 | 
58 | CGACATGTCCCGCTTCTTTCATTAATCCCTTAGCAACTGTTTTGCTATATACATTTAACTTTTAAGAGGAGGAAT |  | 0.237 | 
59 | ACAGACGAAGGAGCCGCAAAGATGTTATTAAGGGATGAATAATACCTCAATATAAATATCTCTCACTTATTTAAA | 0.142 |  | cleaved RNA product abundance [4]: 0.128
60 | CGACATGTCCCGCTTCTTTCATTAATCCGTTAGCAACTGTTCTGCTATATACATTTACTTTTTAAGAGGAGGAAT |  | 0.495 | 
61 | ACAGACGAAGGAGCCGCAAAGAAGATATTAAGGGATGAAAAATCCCTCAATATAAATATCTCTCACTTATTTAAA | 0.376 |  | 
